Measurements as given in US8440629B2, “Cyclic receptor-associated protein (RAP) peptides” (Raptor Pharmaceuticals Inc., priority 2007, dated 2013).

T1: LRP2 CR89 Y1042W (WVWR) (Homo sapiens, UniProt P98164, Y1043W)
T1 construct: two CR pairs from LRP2 (CR89, CR3435); made in house; host or cells: E. coli BL21(DE3) CodonPlus-RIPL, pET30(+)a
T1 sequence (P98164 1025-1102 Y1043W): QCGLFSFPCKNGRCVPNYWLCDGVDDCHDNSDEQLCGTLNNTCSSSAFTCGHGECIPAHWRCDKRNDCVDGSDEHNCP

T2: LRP2 CR89 V1047D R1088D (YDWD) (Homo sapiens, UniProt P98164, R1089D/V1048D)
T2 construct: two CR pairs from LRP2 (CR89, CR3435); made in house; host or cells: E. coli BL21(DE3) CodonPlus-RIPL, pET30(+)a
T2 sequence (P98164 1022-1105 V1048D/R1089D limits assumed): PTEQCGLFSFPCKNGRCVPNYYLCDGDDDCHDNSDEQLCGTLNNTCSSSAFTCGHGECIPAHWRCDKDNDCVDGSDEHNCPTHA


Legend:
[1] = target: T3, LRP1 CR3-5 (Homo sapiens, UniProt Q07954); assay: Solid phase binding assay
T3 construct: made in house; host or cells: E. coli BL21(DE3) CodonPlus-RIPL, pET30(+)a
T3 sequence (Q07954 852-973): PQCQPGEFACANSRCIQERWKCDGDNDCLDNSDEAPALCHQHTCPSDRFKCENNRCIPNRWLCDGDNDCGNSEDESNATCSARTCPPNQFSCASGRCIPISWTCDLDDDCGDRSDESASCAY
Procedure: (§1) All expression constructs were sequenced to verify insert sequences and the junctions with the expression vector. Each plasmid was then used to transform BL21(DE3) CodonPlus-RIPL™ cells (Stratagene). Expression of the CR proteins was induced in logarithmic growth-phase cells grown in LB supplemented with 34 μg/mL chloramphenicol, 12.5 μg/mL tetracycline and 15 μg/mL kanamycin by addition of 2 mM IPTG, followed by reduction in incubator temperature to 32° C. and incubation for 4 hours with agitation at […]. Cells were pelleted and resuspended, at 3.5% of the initial culture volume in 10 mM Tris-HCl pH 8, 100 mM NaH2PO4, 8M Urea. Resuspended cells were then frozen in liquid nitrogen, rapidly thawed to 37° C. and sonicated for 10 seconds at an amplitude setting of 60 using a Cole-Parmer CP-130 ultrasonic processor connected to a 3 mm probe. This procedure was repeated three times to effect complete lysis of the cells. Lysates were clarified by spinning twice at 10,000×g in a Sorvall RC-5 centrifuge for 20 minutes at 15° C. Ni-NTA columns (Qiagen Superflow™, 1.5 mL packed bed) were used to purify the CR proteins. Briefly, the resin was equilibrated with two column volumes of lysis buffer. The clarified lysate was then supplemented to 20 mM with imidazole and incubated with the equilibrated Ni-NTA resin overnight at 4° C. The flow-through was discarded. Columns were washed once with one column volume of lysis buffer and then three times with one column volume of TBS pH 8 supplemented with 20 mM imidazole. CR-loaded beads were then removed from the column and CR proteins eluted by incubating at room temperature for 30 minutes with one column volume of the same buffer containing 200 mM imidazole. This step was repeated once and the eluates pooled. Eluted CR protein solutions were then supplemented to 2 M urea, 10 mM CaCl2 and 5 mM DTT. Purified, denatured CR protein solutions were transferred to 3,500 MWCO Slide-A-Lyzer™ (Pierce) cassettes and sequentially dialyzed against a 200-fold excess of 50 mM Tris-HCl pH 8.5, 10 mM CaCl2, 1 mM reduced glutathione, 0.5 mM oxidized glutathione at room temperature overnight and then against TBS supplemented with 5 mM CaCl2 at 4° C. overnight. Protein concentrations were determined by Bradford assay and purity confirmed by SDS-PAGE with Coomassie Brilliant Blue staining.
(§2) Purified, refolded CR protein (1 μg) was bound to Nunc Maxisorp™ 96-well plates in TBS pH 8 supplemented with 5 mM CaCl2 (TBSC) overnight at 4° C. Wells were washed with TBSC and then blocked with TBSC containing 2% bovine serum albumin (BSA). RAP ligands were then incubated with the immobilized receptor at a range of concentrations for 2 hours in the above blocking buffer supplemented with 0.05% Tween-20 at room temperature. Control wells contained no added ligand. As an additional control, to determine whether the absence of calcium affected binding, 10 mM EGTA was included in the incubation medium for some samples. Wells were washed with TBSTC and bound ligands detected with polyclonal anti-RAP (BP41/42, 1:1,000, BioMarin). Excess primary antibody was removed and wells washed before incubation with the secondary antibody, HRP-conjugated goat anti rabbit IgG (Bio-Rad). After washing, TMB substrate solutions (Bio-Rad) were added to detect HRP. Color development was stopped with 1N HCl. Absorption at 450 nm was measured with a microplate spectrophotometer (Molecular Devices). Data were plotted and Kd values derived by non-linear regression with the assumption of single-site binding (GraphPad Prism).
From the large number of CR pairs with unique combinations of amino acids at A, C, A′ and C′ within the calcium-binding loop of each CR, CR pairs or triplets were selected to test their binding to RAP d3 (FIG. 2). An additional pair derived from the FDC-8D6 protein was tested, designated 8D6 CR12, having the sequence ([…]) (SEQ ID NO: 91). […]

[2] = target: T4, LRP2 CR89 (Homo sapiens, UniProt P98164); assay: Solid phase binding assay
T4 construct: two CR pairs from LRP2 (CR89, CR3435); made in house; host or cells: E. coli BL21(DE3) CodonPlus-RIPL, pET30(+)a
T4 sequence (P98164 1022-1105 limits assumed): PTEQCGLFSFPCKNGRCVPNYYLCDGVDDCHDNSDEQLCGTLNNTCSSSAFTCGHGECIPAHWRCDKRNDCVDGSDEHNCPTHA
Procedure: as §1, §2

[3] = target: T1, LRP2 CR89 Y1042W (WVWR); assay: Solid phase binding assay, LRP2 CR89 mutant
Text: (§3) Each amplified fragment was sequentially digested with BamHI and HindIII and then ligated into similarly digested pET30(+)a. The resulting plasmids encode proteins consisting of N-terminal hexahistidine and S-peptides fused to the CR fragment. Ligation reactions were transformed into XL-Blue MRF′ (Stratagene) by electroporation and plasmids isolated from single colonies. Three mutations, […], V1047D and R1088D, were introduced into the LRP2 CR89 expression plasmid both singly and in combination using Stratagene QuikChange II XL reagents and the primers: […]
as §2
(§4) One premise of this work was that amino acids at A, C, A′ and C′ within the calcium-binding loops of a CR pair were key determinants of binding affinity for RAP and would be similarly important for binding of RAP variants. To test this idea, mutant LRP2 CR89 were prepared in which the native, non-canonical residues at these positions were sequentially substituted with the non-native, canonical residues. As defined above, the A, C, A′, C′ string for LRP2 CR89 is YVWR. Mutants included LRP2 CR89 Y1042W (WVWR), LRP2 CR89 V1047D (YDWR), LRP2 CR89 R1088D (YVWD), LRP2 CR89 V1047D R1088D (YDWD), LRP2 CR89 Y1042W V1047D R1088D (WDWD), LRP2 CR89 Y1042W V1047D (WDWR), LRP2 CR89 Y1042W R1088D (WVWD). Binding to both RAP d3 and MegaRAP1 d3 were measured for each LRP2 CR89 mutant by solid-phase assay. Only the YVWD mutant retained significant binding to MegaRAP1 d3, with an approximate 2-fold loss of affinity relative to LRP2 CR89 (FIG. 6 and Table 3). […] The A′ position in LRP2 CR89 is a tryptophan, the canonical residue for wild-type RAP d3 binding, and was not mutated in our studies.

[4] = target: T2, LRP2 CR89 V1047D R1088D (YDWD); assay: Solid phase binding assay, LRP2 CR89 mutant
Text: as §3, §2, §4

[5] = target: T5, LRP2 CR89 R1088D (YVWD) (Homo sapiens, UniProt P98164, R1089D); assay: Solid phase binding assay, LRP2 CR89 mutant
T5 construct: two CR pairs from LRP2 (CR89, CR3435); made in house; host or cells: E. coli BL21(DE3) CodonPlus-RIPL, pET30(+)a
T5 sequence (P98164 1022-1105 R1089D limits assumed): as the sequence (P98164 1022-1105 limits assumed) above, with R68D counted along it
Text: as §3, §2, §4

Molecule | binding at 80 nM (in words) ([1]; 80 nM ligand, FIG. 7) | binding to LRP2 CR89 (in words) ([2]; solid-phase assay) | binding (in words) [3] | binding (in words) [4] | loss of affinity relative to LRP2 CR89 [5] | binding to LRP1 CR3-5 (in words) ([1]; solid-phase assay) | binding at 80 nM (in words) ([2]; 80 nM ligand, FIG. 7) | Kd ([2]; solid-phase assay, LRP2 CR89, read-out: apparent dissociation constant (Kd))
RAP d3: third domain of human RAP, amino acids 201-319 of mature RAP, bacterially expressed with hexahistidine and S-peptide tags (SEQ ID NO: 92) (protein, listed as Homo sapiens, hexahistidine and S-peptide tags) LDRLRRVSHQGYSTEAEFEEPRVIDLWDLEQSANLTDKELEAFREELKHFEAKIEKHNHYQKQLEIAHEKLRHAESVGDGERVSRSREKHALLEGRTKELGYTVKKHLQDLSGRISRAR | only bound to LRP1 CR3-5 | no significant affinity | – | – | – | – | – | –
MegaRAP1 d3: d3 of RAP variant selected on LRP2 CR89: S213T, E217K, H249Y, E251K, K256A, K270E (SEQ ID NO: 93) (protein, listed as Homo sapiens) LDRLRRVSHQGYSTEAEFEEPRVIDLWDLEQSANLTDKELEAFREELKHFKAKIEAHNHYQKQLEIAHEDLRHAESVGDGERVSRSREKHALLEGRTKELGYTVKKHLQDLSGRISRAR | – | – | prevent binding | failed to bind measurably | ~2 fold | no significant affinity | bound only to LRP2 CR89 | 38 nM
